Measurements from the DeepSol protein solubility set.

Experiment: soluble on expression in E. coli; label from the status in PepcDB or PDB records

| Sequence | soluble on expression in E. coli |
| --- | --- |
| MSLKIPEAVNHINVQNNIDLVDGKTNPNKATKALQKNILRVTNSSSSGISEKHLDHCANTVKNFLRKSIAAQSYSKMFSQGTSFKSLNLSIEAPSGARSSFRSLEHLDKVSRHYISEIIQKVHPLSSDERHLLSIIINSNFNFRHQSNSNLSNNILNIKSFDKIQSENIQTHKNTYSEDIKEISNHDFVFFGVEISNHQEKLPLNKTHHTVDFGANAYIIDHDSPYGYMTLTDHFDNAIPPVFYHEHQSFFLDNFKEVVDEVSRYVHGNQGKTDVPIFNTKDMRLGIGLHLIDFIRKSKDQGFREFCYNKNIDPVSLDRIINFVFQLEYHIPRMLSTDNFKKIKLRDISLEDAIKASNYEEINNKVTDKKMAHQALAYSLGNKKADIALYLLSKFNFTKQDVAEMEKMNNNRYCNLYDVEYLLSKDGANYKVLEYFINNGLVDVNKKFQKANSGDTMLDNAMKSKNPKMIDFLLKNGAILGKRFEIEGHHHHHH | soluble |
| MSLKISAIELYEYDLTYSHGTYVMSKGRSAKQQPSNLVRVITDSGIEGWGEAATLSGNYLPVFAGSTRAALRELAPLLIGQDPRGSTHLQRLMSSLLMGQANAKNAFDVACWDIFGKSVDLPISALIGGVLSTELPIFEAVPLSSTEESLDYIGKRSAQGIMRYQIKIGDDPVKDAARARAIVKAFPDIFFFVDANAGYTLLEAQIAMRALDDTNLYVEQPCRDIADCAMLRKISGLPIVLDEAVLTHADLYRAKYEVSAAAVNIKLGRLGGITPAVAMRNAAQDLGMHFCIEDVWGGDVTAAAVSHVAASAFPENLMHTSFFNDWTNEHVAGYQPRSRNGRGAAPTGPGLGITVDRSLLGAPVASFSEGHHHHHH | soluble |
| MSLKISHIDLGEHPILLAPMEDVTDPAFRLMCKKFGADMVYTEFVSSDALIRAVSKTAQKLSISDEERPVAIQIYGKDTETMVEAAKIVEQAQPDILDINFGCPVKRVAGKGAGAGMLQNIPKMLEITRAVVDAVKIPVTVKTRLGWDANNKIIVDLAEQLQDCGIAALTIHGRTRAQMYTGEADWTLIGEVKNNQRMHIPIIGNGDVTTPQRCKECFDRYGVDAVMIGRASFGRPWIFKEVKHYLETGEELPPLSFEWCMEVLRQEVIDSVNLLDERRGILHVRRHLAASPLFKGIPNFKETRIAMLRAETKEELFRIFETIPEKVNSLLDEGHHHHHH | soluble |
| MSLKIVSFQDTKQNTGMESAEISEELNKLSKEKSDLQKKVNELQSQVKGYQNAAASSGSMNKQIVNELNTSNMLIGSVDVTGPGIILVITPQNISSSTNNSTGQNNDVITGEDLLYLINELNFSQAEAISINDVRITSMTGIRSSSGGSDIFVGDDRISPYEKITIKAIGDSKLLYSALSYPGVLSSVPSGYKADYDKYGSIKIGKTNKVIKFDYAKPISKEGHHHHHH | soluble |
| MSLKKQLVKTDGHNQLDQPNTKALQLKKKQFNSGVRVTSEISFLREVIAHHPGIETERVIDNQTFGSAMYLERAQKEHQLFIKILRQHGTKVHYLQDLLLEALSAADPNVRQDFIKNFLLESGIKSVSTFEACLNFFRSLDSLVDVIKVMFGGIKVSDVPPITPQRFADIHVSNSPFLIKPLSFSLYPHKFFNTLGTGVALFVTNDSELKRHSLVYEYIMRFHPRFDGVKLYTNRDFKNCLINSSDIIQISNEILLIGISHDTDVLGIESLARNLLSDHTNPIKQIIAINIHKFGAKTNLNKLIAMVDVDKFIIARKVLQATEIFELTATAQRDVDGLAQIKFKPLKFNFGEIIEAIIDKQPRFVIIGGGDEVAERKELLDCGMGVLNLSPGEIVVFDRNHYTNNLLNELGLIIHKIPASELSRGPSGPLEMVCSLWREEGHHHHHH | soluble |
| MSLKKRIPTLLATMIATALYSQQGLAADLASQCMLGVPSYDRPLVQGDTNDLPVTINANHAKGDYPDDAVFTGSVDIMQGNSRLQADEVQLHQKEAPGQPEPVRTVDALGNVHYDDNQVILKGPKGWANLNTKDTNVWEGDYQMVGRQGRGKADLMKQRGENRYTILDNGSFTSCLPGSDTWSVVGSEIIHDREEQVAEIWNARFKVGPVSIFYSPYLQLPVGDKRRSGFLIPNAKYTTTNYFEFYLPYYWNIAPNMDATITPHYMHRRGNIMWENEFRYLSQAGAGLMELDYLPSDKVYEDEHPNDDSSRRWLFYWNHSGVMDQVWRFNVDYTKVSDPSYFNDFDNKYGSSTDGYATQKFSVGYAVQNFNATVSTKQFQVFSEQNTSSYSAEPQLDVNYYQNDVGPFDTRIYGQAVHFVNTRDDMPEATRVHLEPTINLPLSNNWGSINTEAKLLATHYQQTNLDWYNSRNTTKLDESVNRVMPQFKVDGKMVFERDMEMLAPGYTQTLEPRAQYLYVPYRDQSDIYNYDSSLLQSDYSGLFRDRTYGGLDRIASANQVTTGVTSRIYDDAAVERFNISVGQIYYFTESRTGDDNITWENDDKTGSLVWAGDTYWRISERWGLRGGIQYDTRLDNVATSNSSIEYRRDEDRLVQLNYRYASPEYIQATLPKYYSTAEQYKNGISQVGAVASWPIADRWSIVGAYYYDTNANKQADSMLGVQYSSCCYAIRVGYERKLNGWDNDKQHAVYDNAIGFNIELRGLSSNYGLGTQEMLRSNILPYQNTLEGHHHHHH | soluble |
| MSLKKSDATGGEVASAEPIAKIPAPAGKAWTETFSVTPDGGYLLGNPDAPIKLIEFGALSCSHCAEFSEKGFPKLRDEYIASGRVSYELRLFLLNALDMPAVLLATCGAPEAVIPLSEQFWAWQPNMFSNLQKDEAAFQQISNLPAEKRFAGIAQLGGLSEFFASRGIAAAQGATCLADTAKATRLATVNDQWGKEYDITGTPTFFLNGSKTGVATWAELEPMLQKAGAREGHHHHHH | soluble |
| MSLKLDSKGPVLFKQKRVGINKTHFHILKFRTMRIDTPKDTPTHLLKNPDQYITKMGKFLRKTSLDELPQIWNIFVGHMSIIGPRPALWNQYDLIVERDKYGANDVPPGLTGWAQINGRDELPIEVKAKLDGEYVQNIGFWMDVKCFVGTIWSVLRSDGVVEGGTGSAKKEIASTKRREGHHHHHH | soluble |
| MSLKLIGMLDSPYVRRVAISLKSLGLPFEHHSLSVFSTFEQFKAINPVVKAPTLVCEGGEVLMDSSLIIDYLETLAGPQRSLMPTALPQRLRELRLVGLALAACEKSVQIVYERNLRPAEKQHGPWLERVGGQLQAAYGELEQELQKQPLPRDGSLGQAGISLAVAWSFSQMMVADQFNPGQFPAVRGFAEYAEQLPVFLATPATEGHHHHHH | soluble |
| MSLKLNWDKAIDKAIKRYGLRVEPQLISYFSKAGVSYPPKEIALLAFKSERKVELWAKNPSQEWTHIHDYPLTGFSGRLGPKLRENDKQIPEGIYKLVNFNPFSSMHLSMMINYPNSFDRQKGYMDGRKELGNNIFIHGKNLSVGCLAVGDLAIDQLFILARRVGLKNIQVIIAPNDLRYQKPSTSTFAQPRWLPELYKQITESLKPFKKTKFTAEGHHHHHH | soluble |
| MSLKLRGHHLICLQFFRGEGYSGEFVENVKKIMERLESGETVEVVAGVDDICVACPYNRGYCGKDETSEERVREMDKAAVRLLGVSEKTTWREVAERIEKVLNEWRVFCEDCDWKEVCYGEGHHHHHH | soluble |
| MSLKLVGIIGSIADESYNRKLMLYIASHFKETIDIEILDIRDVPMFRVGMEMGPAVEYLNKKISAADGVIIATPEHNHTTTAALKSVIEWLSSSVHPFADKPVLLVGASYFEQGSGRAQLDLRQILESPGVNALVMPKDEFLLGNVKSAFDENGNLKEARTVGFLESVMGNFLKWIKVLKAMKKNNDVKGDWESEDLTASQEIDTTVKGVDMKAEDWVEQAAAKTNAVEGDTYVKLDRGLLTVNQLNWFLNTMPVELTFADDNNQFIYYNRMDENPKDMLAPRQPKQVGDPLESVHPERALKGVKHVVHTLRTGETDLVSMPVPFINKVNEKHVMHYYKAMHDEDGRYRGINEWVVDIWPVVESYLKMTGQKLVADENAKVDEGHHHHHH | soluble |
| MSLKPLIKIETERTSLIYQVADNGRLYQKYLGKKLNHDSDIQYLPQGTEAYLTHGMEDYFEPAIHIRHNDNNSSLLLKYVDHSSNAIGNGVNETVITLKDDKYPVTVKLHYVAYGKENIIRTFTEISHEEKKPVILCKYASSMLHLNSSKYFLTEFSGDWAHEANVTERELAFGKKVIDTKLGARANMFVSPFFQLALDNPSQENAGEVLVGTIGWTGNFRFTFEVDNKNELRIISGINPYDSEYSLPAREVFRTPDFYFTYSTQGKGEASRNFHDWARNHQVKNGNDTRMTLLNNWESTYFDFDENKLIGLMDEATKLGVDMFLLDDGWFANKYPRSSDHQGLGDWEETADKLPNGVGRLVEEAQKKGIKFGIWIEPEMVNPKSELYEKHKDWVIHLPNRDEYYFRNQMVLDLSNPKVQDHVFGVVDNLMTKYPGIAFFKWDCNSPITNIYSVYLKDKQSHLYVDYVRGLYKVLDRIKAKYPNLPMMLCAGGGGRSDYEALKYFTEFWPSDNTDPIERLFIQWGYSQIFPSKTLCAHVTTWNRGTSIKFRTDVAMMCKLGFDIKLEDMNQNEHLYCDQAVKNYNRLKPVILEGDLYRLVSPYGSNHTSSMFVGKDKKTAAVFAFDIHPRYAEKTLPVRLQGLNADKKYRVKEINMMPGSGSSLKGNNQVFSGEYLMNVGLDLFTTQQLNSRLIEITEEGHHHHHH | soluble |
| MSLKPNYLEERICLNVLANSVENAQACYEAAEGHVVLGVLSKNYETDEAAIDDMKKYQAATNNALSVGLGAGDPNQSQMVARLSEVLQPQHVNQVFTGVGASRALLRQDETVINGLVSPTGKVGYVNIATGPLSSGAPAAEVPIETAIKLLKDMGGSSIKYFPMKGLAHKEEYQAVAAACAKYDFYLEPTGGIDLENFEEIVQIAVDAGVKKIIPHVYSSIIDQETGDTRTEDVKTLLTMMKKTLNK | not soluble |
| MSLKQAIFVMMDQYADWEGAHLSSQLNQMTDWTVKTASNQPEVTSIGGWTTRVDYQISELNPEMTLLVLIGGNAWQHDDPRLTALIQQCLQRKVIVGAICGAVDYLARNGLLTGYRHTGNAQFSWQSFPKYQNPTDFELQQVVVDRQLVTANGTAALSFTSAVLKASGQLTIAAKQALDLQQLGYYDNTETHLNEGHHHHHH | not soluble |
| MSLKQLFLIIGAPGSGKTTDAELIAKNNSETIAHFSTGDLLRAESAKKTERGLLIEKFTSQGELVPLEIVVETILSAIKSSGKGIILIDGYPRSVEQMQALDKELNAQNEVILKSVIEVEVSENTAKERVLGRSRGADDNEKVFHNRMRVFLDPLGEIQNFYKNKKVYKAIDGERSIEEIVGEMQEYILSFGNEGHHHHHH | soluble |
| MSLKRALAALVLLGAVAQAQTGHAGHSVGSVSTGVSMPAMSKQMVSALGPLRGRAFDIKFAQLMMDHHQMALDMAGQELSSGKNAQVRAAAKKVVAAQQQEIALMTGWLRKWTGKVYVPQTLPMVLTGTVNTDRWFLTEMLPHHQGAVDMSKLAAGRSGSSEVKKLALSIIRSQTAEMNTYRQLLKTVKEGHHHHHH | soluble |
| MSLKTALDIIEHAEEHLIEKIAENMHTFGMPSTVGRVLGIIYMNRKPMTLSELSEATGMSKTRMSQVVREMIDANIAEKVFEKGVRKDLYDVEQDYYQTFISLFAANWTKVVSKNKVLYKKLNRELSDLLQRDGLTPEAEEKVNQLLNELKEWLHYYDWLSRLIEFFESEEVFRYVPKTKECSSLKEGGSHHHHHH | soluble |
| MSLKTERILLPVDGSESSYRAAYCAAQAAQLCGAEVLLLHCVDQTEQNGEAPLVDTTLAEDTTTNRHPKQADALGMATANDLIGPVRDILEDHGIRYMERIVEGEPATCIPRVAQNTRCGLIVMGRSGKTPSGRLPVGSVTGRVVGAAHCPVIVAEGHHHHHH | soluble |
| MSLKTLLFDVDDTLLDFKLAEKKALHALFEEENVPFTSEVESTYHRINQGLWRSFEEGKITKDVLLDTRFGLLFDAFNREVDSVKMGENYREYLSQGHDLLGNSQRILEKLAPHYDLYIVTNGVAKTQYRRLEDSKLMPYFKDIFVSEEVGYQKPMKEYFDFVFERIPNFSREKTMIIGDSLHSDIQGGQQAKIQTVWLNPTSAPATPTIQPNYTIQQLDELLPILGHEGHHHHHH | soluble |
